# In the nanobody polyreactivity screen of Harvey et al. (2022):
# Assay: yeast display, Sf9 membrane polyspecificity reagent, FACS + sequencing; frameworks hold sequencing errors
# In short: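 Sorting gates, low and high (top ~1%), were placed on anti-HA fluorescence to track expression and on streptavidin fluorescence to track reagent binding. A clone's polyreactivity label is taken from the gate it came out of. The reagent was 10% biotinylated, detergent-solubilized Sf9 membrane, applied for 1 hour at 4 °C to galactose-induced yeast display cells.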
row,Sequence,polyreactivity (PSR sort gate)
1,QVQLVESGRGLVQAGGSLRLSCAASGRIFYNYAMGGYRQAPGKERELVAAISSSGGSTYFADSVKGRFTISRDNAKNTVYLQMNSLKPEDTAVYYCAVRKQYSGRYYRAYDYWGQGTQVTVSW,high polyreactivity
2,QVQLVESGGGLVQAGGSLRLSCAASGRTFRYYTMGWYRQAPGKERQFVAAISSTGGTYYADSVKGRFTISRDNAKNTVYLQMNSLKPADTAVYYCAATFIQVVVNVQLYDYDYWGQGTQVTVSS,low polyreactivity
3,QVQLVESGGGLVQAGGSLRLSCAASGSTFNWYAMGWYRQAPGKEMELVAAITSTGGSTYADSVKGRFTISRDNAKNTVYLQMNSLKPEDTAVYYCNVDTSSPSRRDYDYWGQGTQVTVSS,low polyreactivity
4,QVQLVESGGGLVQAGGSLRLSCAASGFTFQYKAMGVYRQAPGQERELVAAISRGGGRTYYADSVKGRFTISRDNAKNTVYLQMNSLKPEDTAVYYCNVLNYSSRHYLFSYDYWGQGTQVTVSS,high polyreactivity
5,QVQLVESGGGLVQAGGSLRISCAASGFTFGRYAMGWYRQAPGKEREFVASISARGGNTFYADSVKGRFTISRDNAKNTVYLQMTSLKPEDTAVYYCNALTYFKRSEYYWGQGTQVTVSS,high polyreactivity
6,QVQLVESAGGLDQARGSLRLSCAASGFTFIRYAMGWYRQAPGKESELVATITRSGGSTYYADSVKGRFTISRDNAKNTVYLQMNSLKPEDTAVYYCAKRGTLGSYYYWGQGTQVTVSS,high polyreactivity
7,QVQLVESGGGLVQAGGSLRLSCAASGGISHRYAMGWYRQAPGKERELVAAITASGTSTNYADSVKGRFTISRDNAKNTVYLQMNSLKPEDTAVYYCAARYYSFFYPYYYWGQGTQVTVSS,high polyreactivity
8,QVQLVESGGGLVQAGGSLRLSCAASGRIFYYYAMGWYRQAPGKERELVAAITSGGRTYYADSVKGRFTISRDNAKNTVYLQMNSLKPEDTAVYYCAADRTYTYLGPGYEYWGQGTQVTVSS,low polyreactivity
9,QVQLVESGGGLVQAGGSLRLSCAASGFTYDNYAMGWYRQAPGKERELVAAIRRSGSRTYYPDSVKGRFTISRDNAKNTVYLQMNSLKPEDTAVYYCAAVWYRLYGYCGQGTQVTVSS,low polyreactivity
10,QVQLVESGGGVVQAGGSLRLSCAASGFIFEYYPMGWYRPAPGKERELVAAISWSGGSTYYADSVKGRFTISRDNAKNTVYLQMNSLKPEDTAVYYCAAGRYFHHPTSYYYWGQGTQVTVSS,high polyreactivity
11,QVQLVESGGGLVQAGGSLRLSCAASGSTYALNAMGWYRQAPGKDRDLVDAISRRGGSTYYADSVKGRFTISRDNAKNTVYLQMNSLKPEDTAVYYCAARNQSQRTGYDFWGQGTQVTVSS,high polyreactivity
12,QVHLVESGGVLVQAGGSLRLSCAASGFILYFNAMGWYIQAPGKERELVAVNTFRSGSTYYADSVKGRFTISRDNAKNTVNLQMNSLKPEDTAVYYCNAQSVLLSLRVELREPHEYWGHGTQVTVSS,low polyreactivity
13,QVQLVESGGGLVKAGGSLRLSCAASGRTFRAYAMGWYRQAPGKERELVAAITSGGSTKYADSVKGRFTISRDNAKNTVYLQMNSLKPEETAVYYCNARFDRVYQLKWWYSYDYWGQCTQVTVSS,high polyreactivity
14,QVQLVDSGGGLVQAGGSLRLSCAASGRIFPVYAMAWYRHAPGKEREMVAAITKSGGNTYYADSVKGRFTISRDNAKYTVYLQMNSMKPEDTAVYYCAADSSAKMGPQYYYALDYWGQGTKVTVSS,low polyreactivity
15,QVQLVESGGGLVQAGGSLRLSCAASGFTFYLNVMGWYRQAPGKERELVARISRSGGTTYYADSVKGRFTISRDNAKNTVYLQMNSLKPEDTAVYYCAARRYGVPPTYDYWGQGTQVTVSS,high polyreactivity
16,QVQLVESGGGLVQAGGSLRLSCAASGFTFVSNAMVWSRQAPGKERELVADITSDGSTNYADSVKGRFTISRDNAKNTVYLQMNSLKPEDTAVYHCATDQRSNTWVNQFDYWGQGTQVTVSS,low polyreactivity
17,QVQLVESGGGLVQAGGSLRLSCAASGFTVFYNAMGWYRQAPGKERELVAAITARGGGTYYADSVKGRFTISRDNAKNTVYLQMNSLKPEDTAVYYCAADSFIPPYDHWGQGTQVTVSS,low polyreactivity
18,QVQLVESGGGLVQAGGSLRLSCAASGRTFGNNAMGWYRQAPGKERELVASISSSGGTNYADSVKGRFTISRDNAKNTVYLLMNSLIPEDTAVYYCAKRKFTARQRFWGQGTQVTVSS,high polyreactivity
19,QVQLVESGGGLVQAGGSLRLSCAASGLIFQTYAMGWSRQAPGKERELVATISGSTGGTYYADSVKGRFTISRDNAKNTVYLQMNSLKPEDTAVYYCNASVFQSEYDYWGQGTQVTVSS,low polyreactivity
20,QVQLVESAGGIVQAGGSLRLSCAASGFTFSRYAKGWNRPEPGKEREWVAAMTSSGGSTYYADSVKGRFTISRDNAKNTVYLQMNSLKPEDTAVYYCNARASGRTYRVDYWGQGTQVTVSS,high polyreactivity
21,QVQLVESGGGLVQAGGSLRLSCAASGSTFFTNVMGWYRQAPGKERELVADISSGGDTNYADSVKGRFTISRDNAKNTVYLQMNSLKPEDTAVYYCAVDPNVDYELHGFFFSFDYWGQGTQVTVSS,low polyreactivity
22,QVQLVDSGGGLVQAGGILRLRFAASGYTFDKYAMGWYRQKPGKARELVAAITSLGGSKYYADSVKGRFTISRDHAKNTVYLQMNSLKPDVTAVYYCAAEYVAPVPRVHEEMYYWGQGTQVTVSS,high polyreactivity

row,Sequence,polyreactivity (PSR sort gate)
1,QVQLVESGGGLVQAGGSLRLSCAASGFTFYSNAMGWYRQAPGKERELVAAISGSGGRTYYADSVKGRFTISRDNAKNTVYLQMNSLKPEDTAVYYCAAKFTTGYYYGVPRDYWGQGTQVTVSS,high polyreactivity
2,QVQLVESGGGLDQAGGSLRLSCAASGITFGFNAMGWYRQAPGIERELVAAITYRGGSTYYADSVKGRFTISGDNAKNTVYLQMNSLKPEDTAVYYCAADIGRHTDNYDPRYDYWGQGTQVTVSS,low polyreactivity
3,QVQLVESGGGLVQAGGSLRLSCAASGRTSVGYVMGWYRQAPGKERELVASITSGGSTYYADSVKGRFTISRDNAKNTVYLQMNSLKPEDTAVYYCAAQLKSHRTYGHDYWGQGTQVTVSS,low polyreactivity
4,QVQLVESGGGLVQAGGSLRLRCAASGSTFYGNTMGWNRQAPGKERELVAAITWTGGRTYYADSVKGRFTISRDNAKNTVYLQMNSLIPEDTAVYYCARGASFYQKFYYWGQGTQVTVSS,high polyreactivity
5,QVQLVESGGGLFQAGGSLRLSCSASGSIFKRYAMVWYRQAPGKERELVARITNRSGNTYYADSVKGRFTISRDNAKNTVYLQMISLKPEDSAVYYRAATKSLGRYYMYYWGQGTQVTVSS,low polyreactivity
6,QVQLVESGGGLVQAGGSLRLSCAASGLTFDEYAMGWYRQPPGKERELVARITQSGGSTYYADSVKGRFTISRDNAKNTVYLQMNSLKPEDTAVYYCNAGAPARYWWEGDYWGQGTQVTVSS,high polyreactivity
7,QVQLLESGGGLVQAGGSLRLSCAASGYTFRYYTMGWYRQAPGKERELVAAISGSGGSTYYADSVKGRFTISRDTAKNTVYLQMNSLKPEDTAVYYCNRFYSTSRITQYEFDYWGQGTQVTVSS,high polyreactivity
8,QVQLVESGGGLVQAGGSLRLSCAASGFISPQNTMGWYRQAPGKERELVAAITSGGSTYYADSVKGRFTISRDNAKNTVYLQMNSLKPEDTAVYYCAARPYGTWTYGYWGQGTQVTVSS,low polyreactivity
9,QVQLVESGGGLVQAGGSLRLSCAASGRIFPTYAMGWYRQAPGKERELVAGITSGGRTNYADSVKGRFTISRDNAKNTVYLQMNSLKPEDTAVYYCATVSQQSRSLGIDRIYYWGQGTQVTVSS,high polyreactivity
10,QVQLVESGGGLVQAGGGLRLSCAASGFIFSLYAMGWYRQAPGKERELVAAISKRGGSTNYADSLKGRFTISRDNAKNTVYLQRNSLKPDVTAVYYCAATRNYYGRYDYWGQGTQVTVSS,high polyreactivity
11,QVQHVESGGGLVQAGGSLRLSCAASGRIFGGNAMGWYRQAPGKERELVAAISIGGGSTNYADSVKGRFTISRDNAKNTFYLQMNSLKPEDTAVYYCAARTRYTSVGKLYSWGQGTQVTVSS,high polyreactivity
12,QVQLVDSGGGLVQAGGSLRLSCAASGRIFRGYAMGWYRQAPGKERELVAAITSGGITNYADSVKGRFTISRDNAKNTVYLQMNRLKPEDTAVYYCNTRRGWRDFDYWGQGTQVTVSS,low polyreactivity
13,QVQLVESAVGLVQAGGSLRLSCAASGILFARYAMGWYRQAPGKERELVAVISGSGGSTYYADSVKGRFTISRDNAKNTVYLQMNSLKPEDTAVYYCNAEFESGHDLDWYDYWGQGTQVTVSS,low polyreactivity
14,QVQLVESGGGLVQAGGSLRLTCAASGRTFYIYTMGWYRQAPGKERELVAAISSSGDSTYYADSVKGRFTISRDNAKYTVYLQMISLKPEDTAVYYCAAEYAYHHVGFGYWGQGTQVTVSS,low polyreactivity
15,QVQLVESGGGLVQAGGSLRLSCAASGRTFNFNVMGWYRQAPGKESQLVAAISKSTGSTFYADSVKGRFTISRDNAKNTVYLQMNSLKPEDTAVYYCNAVRCYGSGRGYGYCGQGTQVTVSS,high polyreactivity
16,QVQLVESGGGLVQAGGSLRLSCAASGRILVGYAMGWYRQAPGKERELVAAITGSGASTYYADSVKGRFKISRDNAKNTVYLQMNSLKPEDTAVYYCAASYFNYGVGIWYDYWGQGTQVTVSS,high polyreactivity
17,QVQLVESGGGFVQAGGSLRLTCAASGRTFAKNTMGWYRQAPGKERELVAAITWRGGTTYYADSVKGRVTISRDNAKNTVYLQMNSLKPEDTAVYYCAKDRYYGYFRSRSDYWGQGTQVTVSS,high polyreactivity
18,QVQLVESGGGLVQAGGSLRLSCAASGFIFWVYAMGWYIQAPGKERELVAAITSGGGSTYYADSVKGRFTISRDNAKNTVYIQMNSLKPDDTAVYYCATRIRTVAYNYWGQGTQVTVSS,high polyreactivity
19,QVQLQESGGGLVQAGGSLRLSCAASGSIFDGFNMGWYRQAQGKEREFVAAISYGASTYYADSVKGRFTVSRDNAKNSVYLQMNSLKPEDTAVYYCAVYDELYHVLVYWGRGTQVTVSS,low polyreactivity
20,QVQLVESGGGLVQAGGSLRLSCAASGLTFDYYAMGWSRQAPGKERELVAAITSSGGRTYYADSVKGRFTISRDNAKNTVYLQMNSLKPEDTAVYYCAKRDSYYNGVGYWGQGTQVTVSS,low polyreactivity
21,QVQLVESGGGLVQAGGSLRLSCAASGLIFKYYAMGWYRHAPGKERELVAAITWRGGDRTYYADSVKGRFTISRDNAKNTVYLQMNSLKPEDTAVYYCAAVISSPWRFDYWGQGTQVTVSS,high polyreactivity
